Data reported in US20020058024A1 (YEDA RESEARCH AND DEVELOPMENT, published 2002).

T1: RAP (RIP-associated protein) (human, UniProt Q9Y3I1 1-522, limits assumed)
T1 construct: The clone first isolated in the two-hybrid screen was a partial clone of about 1.9 Kb; also called RAP protein; RAP-1 (clone of about 2.2 kB, CNCM I-2706)
T1 sequence: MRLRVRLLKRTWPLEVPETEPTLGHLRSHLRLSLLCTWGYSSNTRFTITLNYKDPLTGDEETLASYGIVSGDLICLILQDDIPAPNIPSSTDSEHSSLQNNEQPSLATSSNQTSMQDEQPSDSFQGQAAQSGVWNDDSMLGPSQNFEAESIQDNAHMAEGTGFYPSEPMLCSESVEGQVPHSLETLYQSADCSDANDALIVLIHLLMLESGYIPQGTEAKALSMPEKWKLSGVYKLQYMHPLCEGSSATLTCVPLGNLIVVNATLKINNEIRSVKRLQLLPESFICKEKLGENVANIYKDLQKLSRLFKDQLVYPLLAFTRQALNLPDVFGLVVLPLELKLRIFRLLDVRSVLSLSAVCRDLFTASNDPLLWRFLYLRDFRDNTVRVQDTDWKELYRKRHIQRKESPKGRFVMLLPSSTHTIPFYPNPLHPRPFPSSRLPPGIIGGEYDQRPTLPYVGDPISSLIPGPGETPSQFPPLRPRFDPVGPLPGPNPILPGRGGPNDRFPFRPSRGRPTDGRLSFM


Biological target: T1, RAP (RIP-associated protein)
Experiment: binding assay tests (method not named)

Binder | binding result
TRADD (other, UniProt Q15628 1-312, looked up) MAAGQNGHEEWVGSAYLFVESSLDKVVLSDAYAHPQQKVAVYRALQAALAESGGSPDVLQMLKIHRSDPQLIVQLRFCGRQPCGRFLRAYREGALRAALQRSLAAALAQHSVPLQLELRAGAERLDALLADEERCLSCILAQQPDRLRDEELAELEDALRNLKCGSGARGGDGEVASAPLQPPVPSLSEVKPPPPPPPAQTFLFQGQPVVNRPLSLKDQQTFARSVGLKWRKVGRSLQRGCRALRDPALDSLAYEYEREGLYEQAFQLLRRFVQAEGRRATLQRLVEALEENELTSLAEDLLGLTDPNGGLA | no binding
MORT-1 (other, UniProt Q13158 1-208, looked up, also called FADD) MDPFLVLLHSVSSSLSSSELTELKFLCLGRVGKRKLERVQSGLDLFSMLLEQNDLEPGHTELLRELLASLRRHDLLRRVDDFEAGAAAGAAPGEEDLCAAFNVICDNVGKDWRRLARQLKVSDTKIDSIEDRYPRNLTERVRESLRIWKNTEKENATVAHLVGALRSCQMNLVADLVQEVQQARDLQNRSGAMSPMSWNSDASTSEAS | no binding
p55-R (receptor, UniProt P19438 235-455, looked up, also called p55 TNF-R; p55 tumor necrosis factor receptor) RYQRWKSKLYSIVCGKSTPEKEGELEGTTTKPLAPNPSFSPTPGFTPTLGFSPVPSSTFTSSSTYTPGDCPNFAAPRREVAPPYQGADPILATALASDPIPNPLQKWEDSAHKPQSLDTDDPATLYAVVENVPPLRWKEFVRRLGLSDHEIDRLELQNGRCLREAQYSMLATWRRRTPRREATLELLGRVLRDMDLLGCLEDIEEALCGPAALPPAPSLLR | no binding
p75-R (receptor, UniProt P20333 287-461, looked up, also called p75 TNF-R; p75 tumor necrosis factor receptor) VKKKPLCLQREAKVPHLPADKARGTQGPEQQHLLITAPSSSSSSLESSASALDRRAPTRNQPQAPGVEASGAGEARASTGSSDSSPGGHGTQVNVTCIVNVCSSSDHSSQCSSQASSTMGDTDSSPSESPKDEQVPFSKEECAFRSQLETPETLLGSTEEKPLPLGVPDAGMKPS | no binding
